This passage reports KD by Biacore relative to KD by ITC (fold) and half-life of the complex results from article PMC2720833.

For the test, the target named is GST-Cullin5 (NTD), N-terminal domain of murine cullin5 (Met1-Leu385) with V341R and L345D (murine) (UniProt Q9D5V5). As to the kind of experiment: SPR. (Surface plasmon resonance follows binding to a sensor surface in real time, without labels.)
Sequence of GST-Cullin5 (NTD), N-terminal domain of murine cullin5 (Met1-Leu385) with V341R and L345D (murine) (Q9D5V5 1-385 V341R/L345D): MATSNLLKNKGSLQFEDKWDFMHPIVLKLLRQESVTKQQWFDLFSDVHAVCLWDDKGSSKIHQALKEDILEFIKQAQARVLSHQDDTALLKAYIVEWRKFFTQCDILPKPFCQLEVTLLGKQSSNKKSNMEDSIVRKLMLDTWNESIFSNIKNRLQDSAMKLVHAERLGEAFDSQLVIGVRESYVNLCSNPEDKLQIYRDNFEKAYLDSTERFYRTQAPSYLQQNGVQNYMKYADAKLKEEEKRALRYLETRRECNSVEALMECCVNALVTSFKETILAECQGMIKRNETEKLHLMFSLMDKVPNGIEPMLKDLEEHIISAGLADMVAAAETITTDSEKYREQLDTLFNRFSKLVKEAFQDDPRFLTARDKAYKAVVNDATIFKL

Turning to “SOCS3 box/elonginBC ternary complex (from UniProt Q15370 1-118; P83940 17-112)”, the KD by Biacore relative to KD by ITC (fold) was 4 fold and the half-life of the complex worked out at 10 s.
